Measured values reported in PMC6555819, “Comprehensive study of nuclear receptor DNA binding provides a revised framework for understanding receptor specificity”.

Assays:
THRa:RXRa = THRa:RXRa (Homo sapiens, UniProt P10827;P19793 full;full); experiment: no ligand; PBM; 90 nM : 90 nM RXRa; PBS pH 7.4, 2% milk, 0.02% Triton X-100, 1 mM DTT, BSA, 0.4 mg/ml salmon testes DNA; conditions: tags: His kept;His cleaved; copies: 1;1; label: surface-attached array probe
PPARa:RXRa = PPARa:RXRa (Homo sapiens, UniProt Q07869;P19793 full;full); experiment: no ligand; PBM; 270 nM : 90 nM RXRa; PBS pH 7.4, 2% milk, 0.02% Triton X-100, 1 mM DTT, BSA, 0.4 mg/ml salmon testes DNA; conditions: tags: GST kept;His cleaved; copies: 1;1; label: surface-attached array probe
Chain of PPARa:RXRa (Q07869 whole entry, chain 1 of 2): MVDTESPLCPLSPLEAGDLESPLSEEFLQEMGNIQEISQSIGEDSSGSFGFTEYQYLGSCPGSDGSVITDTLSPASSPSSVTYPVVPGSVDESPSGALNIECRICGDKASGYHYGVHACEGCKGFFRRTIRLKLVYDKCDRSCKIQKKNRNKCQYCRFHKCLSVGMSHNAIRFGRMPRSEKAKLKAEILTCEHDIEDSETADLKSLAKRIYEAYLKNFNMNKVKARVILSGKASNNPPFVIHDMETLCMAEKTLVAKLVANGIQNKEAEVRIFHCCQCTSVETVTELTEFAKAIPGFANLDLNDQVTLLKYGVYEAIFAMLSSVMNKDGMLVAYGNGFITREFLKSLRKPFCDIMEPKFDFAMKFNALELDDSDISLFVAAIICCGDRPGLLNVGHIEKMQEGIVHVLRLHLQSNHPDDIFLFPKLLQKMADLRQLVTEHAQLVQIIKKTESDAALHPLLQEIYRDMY
Chain of PPARa:RXRa (P19793 whole entry, chain 2 of 2): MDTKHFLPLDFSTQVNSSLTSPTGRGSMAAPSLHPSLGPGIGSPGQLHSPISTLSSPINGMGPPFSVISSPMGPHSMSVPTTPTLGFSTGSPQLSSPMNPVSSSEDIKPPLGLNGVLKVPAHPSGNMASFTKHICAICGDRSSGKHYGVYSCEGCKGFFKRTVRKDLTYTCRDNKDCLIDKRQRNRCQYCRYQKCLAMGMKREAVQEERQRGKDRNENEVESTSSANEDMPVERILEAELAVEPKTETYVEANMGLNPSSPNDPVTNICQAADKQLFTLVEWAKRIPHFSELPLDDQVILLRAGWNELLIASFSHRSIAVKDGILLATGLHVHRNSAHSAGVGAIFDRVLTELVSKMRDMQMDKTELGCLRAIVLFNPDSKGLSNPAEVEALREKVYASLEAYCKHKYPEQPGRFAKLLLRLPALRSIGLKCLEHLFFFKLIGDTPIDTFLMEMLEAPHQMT
How it was run: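 Ligand-free nuclear receptor dimers were applied to custom Agilent 4×180K protein-binding microarrays whose double-stranded probes carried direct-repeat seeds, single-nucleotide variants, half-site ablations and random human genomic background sequences in 34-nt variable regions. Incubation lasted 1 h. Binding z-scores were computed against the random background probes from regression-normalized fluorescence.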

Chain of THRa:RXRa (P10827 other isoform, or with tags, fused parts or gaps, chain 1 of 2): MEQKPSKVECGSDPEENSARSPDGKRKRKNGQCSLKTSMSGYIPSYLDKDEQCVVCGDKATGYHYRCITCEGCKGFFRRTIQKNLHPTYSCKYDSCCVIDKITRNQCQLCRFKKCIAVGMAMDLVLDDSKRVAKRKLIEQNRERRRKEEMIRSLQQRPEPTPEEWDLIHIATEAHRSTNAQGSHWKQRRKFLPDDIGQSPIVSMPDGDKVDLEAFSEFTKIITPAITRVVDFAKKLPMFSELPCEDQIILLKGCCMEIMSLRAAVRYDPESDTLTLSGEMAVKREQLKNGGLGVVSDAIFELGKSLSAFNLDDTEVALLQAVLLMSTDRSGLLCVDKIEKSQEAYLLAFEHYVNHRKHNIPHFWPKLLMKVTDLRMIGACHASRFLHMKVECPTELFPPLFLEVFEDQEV
Chain of THRa:RXRa (P19793 whole entry, chain 2 of 2): as the sequence (P19793 whole entry, chain 2 of 2) above

Row | Binder | binding signal (THRa:RXRa) | binding signal (PPARa:RXRa)
1 | NRC3_wobSeed15_DR0_C13A_o1 (dsDNA) DNA 1: GCCGAACTAGGTAAAGGACAGTGAATCTCCGCACGCGCGATTGACAGCGTAGAATGAAGG DNA 2: CCTTCATTCTACGCTGTCAATCGCGCGTGCGGAGATTCACTGTCCTTTACCTAGTTCGGC | 0.15 PBM z-score against 500 random probes | –
2 | NRC3_random_hg19_48_o1 (dsDNA) DNA 1: GCTAGTCCAGCTGGCTGGAGACTCATGGAAGAACAGGCGATTGACAGCGTAGAATGAAGG DNA 2: CCTTCATTCTACGCTGTCAATCGCCTGTTCTTCCATGAGTCTCCAGCCAGCTGGACTAGC | -1.43 PBM z-score against 500 random probes | –
3 | NRC3_random_hg19_242_o1 (dsDNA) DNA 1: GCCAGCAGAGAACCCAGTGGAACATGAGCCTATACAGCGATTGACAGCGTAGAATGAAGG DNA 2: CCTTCATTCTACGCTGTCAATCGCTGTATAGGCTCATGTTCCACTGGGTTCTCTGCTGGC | -0.39 PBM z-score against 500 random probes | –
4 | NRC3_random_hg19_82_o1 (dsDNA) DNA 1: GCCATACAGACTCTAGTCATTTCAAATGTTCTTGCTGCGATTGACAGCGTAGAATGAAGG DNA 2: CCTTCATTCTACGCTGTCAATCGCAGCAAGAACATTTGAAATGACTAGAGTCTGTATGGC | 0.12 PBM z-score against 500 random probes | –
5 | NRC3_random_hg19_264_o1 (dsDNA) DNA 1: GCTCATCAGTCTAATGATGCTGTTGGTCCAGGGAGCGCGATTGACAGCGTAGAATGAAGG DNA 2: CCTTCATTCTACGCTGTCAATCGCGCTCCCTGGACCAACAGCATCATTAGACTGATGAGC | -0.53 PBM z-score against 500 random probes | –
6 | NRC3_random_hg19_436_o1 (dsDNA) DNA 1: GCATAGTTTCCAGCTTCATCCATGTCTCTGCAAAGAGCGATTGACAGCGTAGAATGAAGG DNA 2: CCTTCATTCTACGCTGTCAATCGCTCTTTGCAGAGACATGGATGAAGCTGGAAACTATGC | 0.27 PBM z-score against 500 random probes | -0.03 PBM z-score against 500 random probes
7 | NRC3_random_hg19_446_o1 (dsDNA) DNA 1: GCACTGAACAACCTGATCCTGAATGACTACAGGGTAGCGATTGACAGCGTAGAATGAAGG DNA 2: CCTTCATTCTACGCTGTCAATCGCTACCCTGTAGTCATTCAGGATCAGGTTGTTCAGTGC | 0.09 PBM z-score against 500 random probes | –
8 | NRC3_wobSeed88_DR3_C13T_o1 (dsDNA) DNA 1: GCTAGCCTAGGTTATGCGGGCCAGTATAGTGTCGGCGCGATTGACAGCGTAGAATGAAGG DNA 2: CCTTCATTCTACGCTGTCAATCGCGCCGACACTATACTGGCCCGCATAACCTAGGCTAGC | 0.05 PBM z-score against 500 random probes | 0.03 PBM z-score against 500 random probes
9 | NRC3_wobSeed42_DR1_G9T_o1 (dsDNA) DNA 1: GCTATACATGGTCAAAGGCCAGAGTACGAATGTCGAGCGATTGACAGCGTAGAATGAAGG DNA 2: CCTTCATTCTACGCTGTCAATCGCTCGACATTCGTACTCTGGCCTTTGACCATGTATAGC | 0.08 PBM z-score against 500 random probes | –
10 | NRC3_random_hg19_98_o1 (dsDNA) DNA 1: GCGCCAGGCTGGTCTCGACCTCCTGACTTTGTGATCGCGATTGACAGCGTAGAATGAAGG DNA 2: CCTTCATTCTACGCTGTCAATCGCGATCACAAAGTCAGGAGGTCGAGACCAGCCTGGCGC | -0.14 PBM z-score against 500 random probes | –
11 | NRC3_wobSeed121_DR5_G18T_o1 (dsDNA) DNA 1: GCCAAACTAGGTCACCGTAAGGTCAAAGTCCGCATGGCGATTGACAGCGTAGAATGAAGG DNA 2: CCTTCATTCTACGCTGTCAATCGCCATGCGGACTTTGACCTTACGGTGACCTAGTTTGGC | 5.33 PBM z-score against 500 random probes | 6.59 PBM z-score against 500 random probes
12 | NRC3_random_hg19_407_o1 (dsDNA) DNA 1: GCGAGACATGAGATTTGGTTCTAGCTACACTCTTCAGCGATTGACAGCGTAGAATGAAGG DNA 2: CCTTCATTCTACGCTGTCAATCGCTGAAGAGTGTAGCTAGAACCAAATCTCATGTCTCGC | -0.37 PBM z-score against 500 random probes | –
13 | NRC3_wobSeed112_DR4_G11C_o1 (dsDNA) DNA 1: GCTAGCCTAGCTCAGATCGGGCCAGTATACGCTATAGCGATTGACAGCGTAGAATGAAGG DNA 2: CCTTCATTCTACGCTGTCAATCGCTATAGCGTATACTGGCCCGATCTGAGCTAGGCTAGC | -0.54 PBM z-score against 500 random probes | –
14 | NRC3_random_hg19_8_o1 (dsDNA) DNA 1: GCGCTGAAACTGGATCCCTTCCTTACACCTTACACAGCGATTGACAGCGTAGAATGAAGG DNA 2: CCTTCATTCTACGCTGTCAATCGCTGTGTAAGGTGTAAGGAAGGGATCCAGTTTCAGCGC | -0.12 PBM z-score against 500 random probes | –
15 | NRC3_random_hg19_166_o1 (dsDNA) DNA 1: GCAATGACATGATCATAGCTCACTGCAGCCTTGAATGCGATTGACAGCGTAGAATGAAGG DNA 2: CCTTCATTCTACGCTGTCAATCGCATTCAAGGCTGCAGTGAGCTATGATCATGTCATTGC | -0.62 PBM z-score against 500 random probes | –
16 | NRC3_random_hg19_259_o1 (dsDNA) DNA 1: GCCCTGAGTCAGTAGAACCAGCTGAGAGATTGGATTGCGATTGACAGCGTAGAATGAAGG DNA 2: CCTTCATTCTACGCTGTCAATCGCAATCCAATCTCTCAGCTGGTTCTACTGACTCAGGGC | -0.45 PBM z-score against 500 random probes | –
17 | NRC3_wobSeed119_DR4_A9T_o1 (dsDNA) DNA 1: GCGGAACGTGGGCATTCGAGTTGATAGCATGGCGATGCGATTGACAGCGTAGAATGAAGG DNA 2: CCTTCATTCTACGCTGTCAATCGCATCGCCATGCTATCAACTCGAATGCCCACGTTCCGC | 0.25 PBM z-score against 500 random probes | –
18 | NRC3_random_hg19_288_o1 (dsDNA) DNA 1: GCCCTGGTTCAAGCGATTCTCCTGCCTCAGCCTCCTGCGATTGACAGCGTAGAATGAAGG DNA 2: CCTTCATTCTACGCTGTCAATCGCAGGAGGCTGAGGCAGGAGAATCGCTTGAACCAGGGC | 0.5 PBM z-score against 500 random probes | –
19 | NRC3_wobSeed17_DR0_G16A_o1 (dsDNA) DNA 1: GCATATGTAGGTTAGAGTCATTCAGAAAGTAGGGAAGCGATTGACAGCGTAGAATGAAGG DNA 2: CCTTCATTCTACGCTGTCAATCGCTTCCCTACTTTCTGAATGACTCTAACCTACATATGC | 0.23 PBM z-score against 500 random probes | –
20 | NRC3_wobSeed120_DR4_G20C_o1 (dsDNA) DNA 1: GCCCGAGTAGGTTACGAGGCGGCATTCAGTGCGAATGCGATTGACAGCGTAGAATGAAGG DNA 2: CCTTCATTCTACGCTGTCAATCGCATTCGCACTGAATGCCGCCTCGTAACCTACTCGGGC | -0.27 PBM z-score against 500 random probes | –
21 | NRC3_random_hg19_78_o1 (dsDNA) DNA 1: GCTATGACTGGTTACACTGGAAACCTAGAATGAACAGCGATTGACAGCGTAGAATGAAGG DNA 2: CCTTCATTCTACGCTGTCAATCGCTGTTCATTCTAGGTTTCCAGTGTAACCAGTCATAGC | 0.42 PBM z-score against 500 random probes | –
22 | NRC3_wobSeed103_DR4_G21A_o1 (dsDNA) DNA 1: GCGCATATAGGTAATACAAGATGAAAGTCCGATTGTGCGATTGACAGCGTAGAATGAAGG DNA 2: CCTTCATTCTACGCTGTCAATCGCACAATCGGACTTTCATCTTGTATTACCTATATGCGC | 0.11 PBM z-score against 500 random probes | –
23 | NRC3_random_hg19_26_o1 (dsDNA) DNA 1: GCACTCAATACACCAAAGCACATCCTCATCAGACTCGCGATTGACAGCGTAGAATGAAGG DNA 2: CCTTCATTCTACGCTGTCAATCGCGAGTCTGATGAGGATGTGCTTTGGTGTATTGAGTGC | 0.33 PBM z-score against 500 random probes | –
24 | NRC3_wobSeed25_DR1_T25C_o1 (dsDNA) DNA 1: GCCAAACTAGGTCAAAGGTCAAAGCCGAGCCAACCAGCGATTGACAGCGTAGAATGAAGG DNA 2: CCTTCATTCTACGCTGTCAATCGCTGGTTGGCTCGGCTTTGACCTTTGACCTAGTTTGGC | 5.19 PBM z-score against 500 random probes | 8.1 PBM z-score against 500 random probes
